{
  "source": "patent US20050282743A1",
  "about": "“Molecular interactions in cells” (Arbor Vita Corporation, priority 2001, published 2005)",
  "assay_in_all_cases": "G' assay (10 uM PL peptide), results of TABLE 7 and TABLE 12",
  "assay_type_in_all_cases": "binding",
  "key": {"[1]": {"biological_target": "T1, PDZ protein (GST-PDZ fusion) (Homo sapiens, UniProt Q02410)", "T1 construct": "made in house; host or cells: E. coli (DH5alpha, BL21 or JM109)", "T1 sequence (Q02410 1-837)": "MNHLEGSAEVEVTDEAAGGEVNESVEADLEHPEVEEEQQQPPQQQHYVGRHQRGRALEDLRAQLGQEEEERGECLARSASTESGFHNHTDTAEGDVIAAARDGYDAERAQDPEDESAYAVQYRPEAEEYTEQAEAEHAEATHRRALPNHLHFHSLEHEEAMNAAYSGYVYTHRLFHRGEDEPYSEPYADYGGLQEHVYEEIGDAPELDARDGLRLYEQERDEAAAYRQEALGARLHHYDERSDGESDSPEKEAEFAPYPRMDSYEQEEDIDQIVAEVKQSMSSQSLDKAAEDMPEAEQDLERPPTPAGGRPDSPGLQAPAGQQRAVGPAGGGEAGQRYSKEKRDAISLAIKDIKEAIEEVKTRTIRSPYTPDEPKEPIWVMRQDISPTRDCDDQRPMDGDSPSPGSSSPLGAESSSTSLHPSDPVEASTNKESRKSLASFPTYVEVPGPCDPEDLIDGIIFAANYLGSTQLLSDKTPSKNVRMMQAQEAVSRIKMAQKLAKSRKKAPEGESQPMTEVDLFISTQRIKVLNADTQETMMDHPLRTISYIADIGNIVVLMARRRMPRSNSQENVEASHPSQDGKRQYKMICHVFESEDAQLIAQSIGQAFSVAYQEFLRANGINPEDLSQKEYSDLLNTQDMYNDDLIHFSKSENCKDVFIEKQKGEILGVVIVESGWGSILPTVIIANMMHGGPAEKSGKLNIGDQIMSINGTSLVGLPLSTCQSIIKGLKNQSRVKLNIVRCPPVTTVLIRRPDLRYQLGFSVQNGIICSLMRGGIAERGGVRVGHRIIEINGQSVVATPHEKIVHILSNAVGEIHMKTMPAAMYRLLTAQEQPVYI", "method_in_brief": "(§1)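 Binding classes derive from A450 nm of bound biotin-tagged PL peptide. A score of 5 needs A450 above 4 in more than two repeats.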"}, "[2]": {"biological_target": "T2, PDZ protein (GST-PDZ fusion) (Homo sapiens, UniProt Q8NI35)", "T2 construct": "made in house; host or cells: E. coli (DH5alpha, BL21 or JM109)", "T2 sequence (Q8NI35 whole entry, the tested form may be a part)": "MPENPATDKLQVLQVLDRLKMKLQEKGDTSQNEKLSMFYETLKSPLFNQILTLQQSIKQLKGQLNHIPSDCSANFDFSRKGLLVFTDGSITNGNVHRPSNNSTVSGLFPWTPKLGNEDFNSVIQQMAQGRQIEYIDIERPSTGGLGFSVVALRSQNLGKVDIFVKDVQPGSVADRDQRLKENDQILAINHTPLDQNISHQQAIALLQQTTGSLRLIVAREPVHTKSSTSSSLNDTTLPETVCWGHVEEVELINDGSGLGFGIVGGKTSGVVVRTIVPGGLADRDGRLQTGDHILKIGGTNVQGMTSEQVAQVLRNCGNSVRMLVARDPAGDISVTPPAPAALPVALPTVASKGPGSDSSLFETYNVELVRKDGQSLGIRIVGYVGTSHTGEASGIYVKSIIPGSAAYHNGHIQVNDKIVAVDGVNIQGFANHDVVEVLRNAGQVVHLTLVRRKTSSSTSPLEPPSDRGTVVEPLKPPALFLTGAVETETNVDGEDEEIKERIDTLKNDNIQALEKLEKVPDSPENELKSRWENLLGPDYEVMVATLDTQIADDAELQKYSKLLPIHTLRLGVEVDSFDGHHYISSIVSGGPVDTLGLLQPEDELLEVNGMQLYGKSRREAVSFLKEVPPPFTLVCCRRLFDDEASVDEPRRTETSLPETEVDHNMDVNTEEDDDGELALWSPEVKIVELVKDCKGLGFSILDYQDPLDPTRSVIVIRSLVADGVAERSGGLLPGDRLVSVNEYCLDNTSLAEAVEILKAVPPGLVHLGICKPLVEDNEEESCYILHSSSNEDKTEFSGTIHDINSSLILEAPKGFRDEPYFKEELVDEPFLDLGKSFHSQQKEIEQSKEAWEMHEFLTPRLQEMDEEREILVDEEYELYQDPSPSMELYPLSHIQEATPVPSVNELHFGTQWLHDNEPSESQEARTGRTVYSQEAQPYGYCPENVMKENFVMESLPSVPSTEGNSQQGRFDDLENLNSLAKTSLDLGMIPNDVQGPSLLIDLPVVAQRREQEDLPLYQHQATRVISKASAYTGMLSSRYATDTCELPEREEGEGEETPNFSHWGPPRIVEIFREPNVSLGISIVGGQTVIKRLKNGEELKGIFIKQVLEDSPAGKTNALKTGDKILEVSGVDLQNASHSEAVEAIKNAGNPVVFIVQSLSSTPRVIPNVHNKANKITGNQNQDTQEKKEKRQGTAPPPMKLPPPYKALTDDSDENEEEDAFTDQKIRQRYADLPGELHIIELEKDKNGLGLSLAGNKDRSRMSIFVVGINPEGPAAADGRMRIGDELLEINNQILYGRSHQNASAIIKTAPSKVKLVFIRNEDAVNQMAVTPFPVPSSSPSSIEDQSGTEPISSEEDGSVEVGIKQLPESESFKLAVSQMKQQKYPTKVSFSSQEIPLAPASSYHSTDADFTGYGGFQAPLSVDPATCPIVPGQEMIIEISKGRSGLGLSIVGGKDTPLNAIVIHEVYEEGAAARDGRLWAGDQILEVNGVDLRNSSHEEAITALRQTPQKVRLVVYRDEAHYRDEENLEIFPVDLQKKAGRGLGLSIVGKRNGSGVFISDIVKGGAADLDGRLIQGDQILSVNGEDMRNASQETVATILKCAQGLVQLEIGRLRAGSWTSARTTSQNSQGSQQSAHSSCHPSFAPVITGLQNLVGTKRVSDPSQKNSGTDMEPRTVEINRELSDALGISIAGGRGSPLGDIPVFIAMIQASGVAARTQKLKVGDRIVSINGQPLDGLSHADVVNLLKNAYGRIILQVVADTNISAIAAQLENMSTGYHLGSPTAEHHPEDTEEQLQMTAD", "conditions": "PDZ INADL, PDZ Domain 8", "method_in_brief": "as §1"}, "[3]": {"biological_target": "T3, PDZ protein (GST-PDZ fusion) (Homo sapiens, UniProt Q86UL8)", "T3 construct": "made in house; host or cells: E. coli (DH5alpha, BL21 or JM109)", "T3 sequence (Q86UL8 whole entry, the tested form may be a part)": "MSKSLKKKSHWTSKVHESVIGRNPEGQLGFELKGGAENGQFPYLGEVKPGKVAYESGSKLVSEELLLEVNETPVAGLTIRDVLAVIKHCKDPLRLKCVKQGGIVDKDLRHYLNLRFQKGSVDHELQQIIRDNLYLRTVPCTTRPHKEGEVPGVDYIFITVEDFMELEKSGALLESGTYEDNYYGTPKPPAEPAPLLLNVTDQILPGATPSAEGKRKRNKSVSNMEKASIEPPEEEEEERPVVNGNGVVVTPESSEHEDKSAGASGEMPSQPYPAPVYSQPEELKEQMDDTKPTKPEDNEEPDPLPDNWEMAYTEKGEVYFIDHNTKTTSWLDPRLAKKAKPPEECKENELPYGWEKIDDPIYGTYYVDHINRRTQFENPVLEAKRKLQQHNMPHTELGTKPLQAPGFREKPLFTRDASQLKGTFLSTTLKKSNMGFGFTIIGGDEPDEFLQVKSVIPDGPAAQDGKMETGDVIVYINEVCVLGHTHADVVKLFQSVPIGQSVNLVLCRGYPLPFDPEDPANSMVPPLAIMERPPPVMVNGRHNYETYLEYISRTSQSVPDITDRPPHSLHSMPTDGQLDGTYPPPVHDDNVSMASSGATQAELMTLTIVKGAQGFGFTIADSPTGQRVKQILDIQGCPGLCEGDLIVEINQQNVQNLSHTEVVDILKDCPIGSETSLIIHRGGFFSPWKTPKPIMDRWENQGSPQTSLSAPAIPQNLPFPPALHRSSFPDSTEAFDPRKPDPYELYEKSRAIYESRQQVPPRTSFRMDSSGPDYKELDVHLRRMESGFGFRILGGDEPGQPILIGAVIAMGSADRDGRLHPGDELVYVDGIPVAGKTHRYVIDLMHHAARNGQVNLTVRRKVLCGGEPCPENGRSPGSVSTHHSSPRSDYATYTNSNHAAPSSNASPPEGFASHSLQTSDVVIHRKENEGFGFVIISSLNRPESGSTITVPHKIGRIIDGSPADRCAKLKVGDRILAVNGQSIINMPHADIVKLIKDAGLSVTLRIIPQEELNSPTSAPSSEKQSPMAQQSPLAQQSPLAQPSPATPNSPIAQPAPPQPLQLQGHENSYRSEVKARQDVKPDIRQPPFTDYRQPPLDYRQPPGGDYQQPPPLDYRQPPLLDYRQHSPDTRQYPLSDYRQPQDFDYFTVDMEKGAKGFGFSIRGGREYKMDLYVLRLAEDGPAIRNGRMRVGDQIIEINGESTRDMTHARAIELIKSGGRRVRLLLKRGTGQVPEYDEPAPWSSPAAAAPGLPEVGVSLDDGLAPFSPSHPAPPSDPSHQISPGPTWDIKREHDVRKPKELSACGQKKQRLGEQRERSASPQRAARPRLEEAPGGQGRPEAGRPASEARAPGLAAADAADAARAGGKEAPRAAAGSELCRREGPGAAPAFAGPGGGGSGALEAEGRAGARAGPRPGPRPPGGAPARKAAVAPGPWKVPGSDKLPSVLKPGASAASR", "method_in_brief": "as §1"}, "[4]": {"conditions": "PDZ atrophin-1 interacting Protein, PDZ Domain 1"}},
  "note": "Ends that are not written are not given here. Peptide text beside a SMILES is read from it. * marks the point of attachment. Biotin = O=C1N[C@H]2[C@H](CS[C@H]2CCCCC(=O)*)N1",
  "data": [
    {"molecule": "RNIEEVYVGGKQVVPFSSSV (Biotin-RNIEEVYVGGKQVVPFSSSV) [Nedasin (s-form)]", "values": [
      {"measurement": "Classification", "setting": "[1]; PDZ Mint 1, PDZ Domain 1, 2", "value": "1 (A450 nm 0-1)"},
      {"measurement": "Classification", "setting": "[2]", "value": "1 (A450 nm 0-1)"}
    ]},
    {"molecule": "CC[C@H](C)[C@H](NC(=O)[C@H](CCC(=O)O)NC(=O)[C@H](CO)NC(=O)[C@H](CCC(=O)O)NC(=O)[C@H](CCCNC(=N)N)NC(=O)[C@H](CCCNC(=N)N)NC(=O)[C@H](CC(C)C)NC(=O)[C@@H]1CCCN1C(=O)[C@H](CCCNC(=N)N)NC(=O)[C@@H]1CCCN1C(=O)[C@H](CCC(=O)O)NC(=O)[C@H](CC(C)C)NC(=O)[C@@H]1CCCN1C(=O)[C@@H](NC(=O)[C@H](CO)NC(=O)[C@H](C)NC(=O)[C@H](CCC(N)=O)NC(=O)[C@H](CC(N)=O)NC(=O)[C@H](Cc1c[nH]cn1)NC(=O)[C@H](CC(C)C)NC(=O)CCCC[C@@H]1SC[C@@H]2NC(=O)N[C@@H]21)C(C)C)C(=O)O", "note": "[Kir2.1 (inwardly rect. K+ channel)] (Biotin-LHNQASVPLEPRPLRRESEI-OH; C-terminus assumed)", "values": [
      {"measurement": "Classification", "setting": "[3]; [4]", "value": "1 (A450 nm 0-1)"}
    ]},
    {"molecule": "CC[C@H](C)[C@H](NC(=O)[C@H](Cc1c[nH]cn1)NC(=O)[C@H](C)NC(=O)[C@H](C)NC(=O)[C@H](CO)NC(=O)[C@@H]1CCCN1C(=O)[C@H](CCCNC(=N)N)NC(=O)[C@H](CC(=O)O)NC(=O)[C@H](CCCCN)NC(=O)[C@@H]1CCCN1C(=O)[C@H](CC(=O)O)NC(=O)[C@H](CCC(=O)O)NC(=O)CCCC[C@@H]1SC[C@@H]2NC(=O)N[C@@H]21)C(=O)N[C@H](C(=O)N[C@@H](CCC(=O)O)C(=O)N[C@@H](C)C(=O)N[C@@H](CC(C)C)C(=O)N[C@@H](CCC(=O)O)C(=O)N[C@H](C(=O)N[C@@H](CC(=O)O)C(=O)N[C@H](C(=O)O)C(C)C)[C@@H](C)O)C(C)C", "note": "[PDZ-binding kinase (PBK)] (Biotin-EDPKDRPSAAHIVEALETDV-OH; C-terminus assumed)", "values": [
      {"measurement": "Classification", "setting": "[3]; PDZ Atrophin-1 Inter. Prot., PDZ Domain 5", "value": "1 (A450 nm 0-1)"}
    ]},
    {"molecule": "KTMPAATYRLLTGQEQPVYL (Biotin-KTMPAATYRLLTGQEQPVYL) [MINT-3]", "values": [
      {"measurement": "Classification", "setting": "[1]; PDZ Mint 1, PDZ Domain 1, 2", "value": "2 (A450 nm 1-2)"},
      {"measurement": "Classification", "setting": "[1]; PDZ Mint 1, PDZ Domain 2", "value": "2 (A450 nm 1-2)"}
    ]},
    {"molecule": "CKR5_HUMAN (ERASSVYTRSTGEQEISVGL)", "values": [
      {"measurement": "Classification", "setting": "[1]; PDZ Mint 1, PDZ Domain 1, 2", "value": "1 (A450 nm 0-1)"}
    ]},
    {"molecule": "CC(C)C[C@H](NC(=O)[C@H](CC(C)C)NC(=O)[C@@H](NC(=O)[C@H](CC(=O)O)NC(=O)CCCC[C@@H]1SC[C@@H]2NC(=O)N[C@@H]21)[C@@H](C)O)C(=O)N[C@@H](CC(C)C)C(=O)N[C@H](C(=O)N[C@@H](CCC(=O)O)C(=O)N[C@@H](CC(N)=O)C(=O)N[C@@H](CCC(=O)O)C(=O)NCC(=O)N[C@@H](CC(=O)O)C(=O)N[C@@H](CCCCN)C(=O)N[C@H](C(=O)N[C@@H](CCC(=O)O)C(=O)N[C@@H](CCC(=O)O)C(=O)N[C@@H](CCC(N)=O)C(=O)N[C@H](C(=O)N[C@@H](CO)C(=O)N[C@@H](Cc1ccc(O)cc1)C(=O)N[C@H](C(=O)O)C(C)C)C(C)C)[C@@H](C)O)[C@@H](C)O", "note": "[5H2B_HUMAN] (Biotin-DTLLLTENEGDKTEEQVSYV-OH; C-terminus assumed)", "values": [
      {"measurement": "Classification", "setting": "[1]; PDZ Mint 1, PDZ Domain 1, 2", "value": "1 (A450 nm 0-1)"},
      {"measurement": "Classification", "setting": "[1]; PDZ Mint 1, PDZ Domain 2", "value": "1 (A450 nm 0-1)"}
    ]},
    {"molecule": "CC[C@H](C)[C@H](NC(=O)[C@H](CO)NC(=O)[C@@H](NC(=O)[C@H](Cc1ccccc1)NC(=O)[C@H](CO)NC(=O)CCCC[C@@H]1SC[C@@H]2NC(=O)N[C@@H]21)[C@@H](C)O)C(=O)N[C@@H](CC(C)C)C(=O)N[C@H](C(=O)N[C@@H](CS)C(=O)N[C@@H](Cc1c[nH]cn1)C(=O)N[C@@H](CCC(N)=O)C(=O)N[C@@H](CCCNC(=N)N)C(=O)N[C@@H](CCCNC(=N)N)C(=O)N[C@H](C(=O)N[C@@H](CCC(N)=O)C(=O)N[C@@H](CCCNC(=N)N)C(=O)N[C@@H](CCCCN)C(=O)N[C@@H](CCC(=O)O)C(=O)N[C@H](C(=O)N[C@H](C(=O)N[C@@H](C)C(=O)O)C(C)C)[C@@H](C)O)[C@@H](C)O)[C@@H](C)O", "note": "[GluR5-2 (rat)]", "values": [
      {"measurement": "Classification", "setting": "[3]; [4]", "value": "1 (A450 nm 0-1)"}
    ]}
  ]
}
